The supplement of paper PMC9732359
± gives the uncertainty stated by the source.

Test: protein stability index of a GFP-peptide fusion (yeast GPS) (PSI 1-4); higher = more stable; sorted into four equal gates, so the index is relative within each strain
Summary of the method: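 Tiled yeast protein peptides of 17 residues were each joined downstream of GFP, on plasmids that also express Cherry. The pooled library was maintained in yeast, and mid-log cultures in leucine-free medium were sorted into four equal gates on the GFP/Cherry ratio. Plasmids from every gate were amplified by PCR and sequenced on Illumina, with barcodes linking reads to strains. The protein stability index of a peptide is its gate-number-weighted read frequency summed over the gates.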

NLLKVSVDICNNSKSRY [ECM29]
protein stability index (doa10∆): 2.04 ± 0.07
protein stability index (pdr5∆): 2.2 ± 0.066
protein stability index (san1∆): 2.9 ± 0.052
protein stability index (ubr1∆): 2.02 ± 0.054

NLLLSASRDKTLISWKL [ASC1]
protein stability index (doa10∆): 2.59 ± 0.071
protein stability index (pdr5∆): 2.79 ± 0.06
protein stability index (san1∆): 3.21 ± 0.05
protein stability index (ubr1∆): 2.2 ± 0.069

NLLQISAAELERLDKDK [SNF5]
protein stability index (doa10∆): 2.5 ± 0.12
protein stability index (pdr5∆): 2.89 ± 0.13
protein stability index (san1∆): 2.91 ± 0.18

NLLTPQPTNFTTKRLWS [MCD1]
protein stability index (doa10∆): 2.79 ± 0.074
protein stability index (pdr5∆): 2.79 ± 0.063
protein stability index (san1∆): 2.73 ± 0.064
protein stability index (ubr1∆): 2.85 ± 0.065

NLNAFVDFSKYNTNFNL [SRP72]
protein stability index (doa10∆): 3.19 ± 0.12
protein stability index (pdr5∆): 2.81 ± 0.12
protein stability index (san1∆): 3.09 ± 0.048
protein stability index (ubr1∆): 2.17 ± 0.08

NLQTFTHEQWSNIQRNV [SRP72]
protein stability index (doa10∆): 2.86 ± 0.065
protein stability index (pdr5∆): 3 ± 0.064
protein stability index (san1∆): 3.01 ± 0.058
protein stability index (ubr1∆): 2.93 ± 0.046

NLRRHSDIVLDKKVTLI [SIN4]
protein stability index (doa10∆): 2.47 ± 0.05
protein stability index (pdr5∆): 3.05 ± 0.042
protein stability index (san1∆): 2.87 ± 0.034
protein stability index (ubr1∆): 2.68 ± 0.038

NLSSNVNFTEIGGLIPQ [YCS4]
protein stability index (doa10∆): 2.77 ± 0.071
protein stability index (pdr5∆): 2.46 ± 0.073
protein stability index (san1∆): 2.49 ± 0.08
protein stability index (ubr1∆): 2.47 ± 0.059

NLYDDVKCWSKFIEKFQ [MED1]
protein stability index (pdr5∆): 3.07 ± 0.11
protein stability index (san1∆): 3.27 ± 0.14
protein stability index (ubr1∆): 3.58 ± 0.29

NLYMLVTTCVYLACKVE [SSN8]
protein stability index (san1∆): 1.62 ± 0.25

NMGSLLGLCLVIQIVTG [COB]
protein stability index (doa10∆): 2.67 ± 0.06
protein stability index (pdr5∆): 2.58 ± 0.053
protein stability index (san1∆): 2.59 ± 0.061
protein stability index (ubr1∆): 3 ± 0.034

NMKVTILHGSKSQEQRE [PRP28]
protein stability index (doa10∆): 3.42 ± 0.093
protein stability index (pdr5∆): 3.31 ± 0.15
protein stability index (san1∆): 3.25 ± 0.046
protein stability index (ubr1∆): 3.35 ± 0.06

NMMNQVGEEETSQKMKK [SRP54]
protein stability index (doa10∆): 3.33 ± 0.11
protein stability index (pdr5∆): 3.39 ± 0.12
protein stability index (san1∆): 3.33 ± 0.076
protein stability index (ubr1∆): 3.23 ± 0.079

NMNLNPQMFLNQQAQAR [GAL11]
protein stability index (doa10∆): 1.92 ± 0.035
protein stability index (pdr5∆): 2.42 ± 0.035
protein stability index (san1∆): 2.37 ± 0.056
protein stability index (ubr1∆): 2.04 ± 0.03

NNFRESDIIILKGEIED [SIR4]
protein stability index (doa10∆): 3.05 ± 0.18
protein stability index (pdr5∆): 2.12 ± 0.091
protein stability index (san1∆): 2.32 ± 0.13
protein stability index (ubr1∆): 2.93 ± 0.13

NNIVSVLTAGVNSVAIK [RPN11]
protein stability index (doa10∆): 2.28 ± 0.075
protein stability index (pdr5∆): 2.26 ± 0.087
protein stability index (san1∆): 2.66 ± 0.078
protein stability index (ubr1∆): 1.97 ± 0.058

NNNINENELFNDRKQTT [SSN2]
protein stability index (doa10∆): 2.71 ± 0.12
protein stability index (pdr5∆): 3.09 ± 0.1
protein stability index (san1∆): 2.87 ± 0.1
protein stability index (ubr1∆): 2.78 ± 0.14

NNNNAPIIIYGTENTER [YOR098C/NUP1]
protein stability index (doa10∆): 2.62 ± 0.054
protein stability index (pdr5∆): 2.69 ± 0.06
protein stability index (san1∆): 2.83 ± 0.045
protein stability index (ubr1∆): 2.74 ± 0.039

NNNNNNNNNNNNDDNGN [MED2]
protein stability index (doa10∆): 3.09 ± 0.038
protein stability index (pdr5∆): 2.94 ± 0.033
protein stability index (san1∆): 3.227 ± 0.029
protein stability index (ubr1∆): 3.23 ± 0.034

NNSNSNNNSSNEKEQLS [SEC65]
protein stability index (doa10∆): 2.77 ± 0.041
protein stability index (pdr5∆): 2.72 ± 0.041
protein stability index (san1∆): 2.79 ± 0.031
protein stability index (ubr1∆): 2.76 ± 0.035

NNVNEYSYTTIVLSDQT [YJL039C/NUP192]
protein stability index (doa10∆): 3.11 ± 0.059
protein stability index (pdr5∆): 3.14 ± 0.066
protein stability index (san1∆): 3.09 ± 0.045
protein stability index (ubr1∆): 2.93 ± 0.044

NNYDDFMLSDDEGMESI [RRI2]
protein stability index (doa10∆): 2.54 ± 0.26
protein stability index (pdr5∆): 3.71 ± 0.19
protein stability index (san1∆): 3.37 ± 0.18

NNYPNVELTYSLNNSDS [BRR2]
protein stability index (doa10∆): 2.99 ± 0.14
protein stability index (pdr5∆): 2.42 ± 0.18

NPHDTLNRIKKYLLTQR [PRP8]
protein stability index (doa10∆): 2.22 ± 0.095
protein stability index (pdr5∆): 2.14 ± 0.08
protein stability index (san1∆): 2.25 ± 0.11
protein stability index (ubr1∆): 2.27 ± 0.15

NPLMYSGGNNTATIINN [PCI8]
protein stability index (doa10∆): 2.93 ± 0.064
protein stability index (pdr5∆): 2.9 ± 0.057
protein stability index (san1∆): 3.12 ± 0.05
protein stability index (ubr1∆): 3.11 ± 0.045

NQFKRIDTLLYLMTYPQ [RET1]
protein stability index (doa10∆): 1.4 ± 0.1
protein stability index (pdr5∆): 1.44 ± 0.11
protein stability index (san1∆): 1.48 ± 0.14
protein stability index (ubr1∆): 1.55 ± 0.067

NQILQTEIENYLLENNQ [YDL116W/NUP84]
protein stability index (doa10∆): 1.88 ± 0.052
protein stability index (pdr5∆): 2.24 ± 0.038
protein stability index (san1∆): 2.19 ± 0.066
protein stability index (ubr1∆): 2.13 ± 0.043

NQNFSLTFQPQQQTNAL [GRR1]
protein stability index (doa10∆): 2.95 ± 0.065
protein stability index (pdr5∆): 3.2 ± 0.061
protein stability index (san1∆): 3.02 ± 0.067
protein stability index (ubr1∆): 2.94 ± 0.057

NQQAQARQQVAQQLRNQ [GAL11]
protein stability index (doa10∆): 2.49 ± 0.065
protein stability index (pdr5∆): 2.94 ± 0.13
protein stability index (san1∆): 2.45 ± 0.14
protein stability index (ubr1∆): 2.34 ± 0.1

NQSTIYEDEELSRAEYD [LIN1]
protein stability index (doa10∆): 3.12 ± 0.086
protein stability index (pdr5∆): 3.2 ± 0.087
protein stability index (san1∆): 3.15 ± 0.058
protein stability index (ubr1∆): 3.27 ± 0.058

NRAARDRRAQRVAEKRD [RPL19A]
protein stability index (doa10∆): 2.94 ± 0.12
protein stability index (pdr5∆): 2.69 ± 0.082
protein stability index (san1∆): 2.85 ± 0.089
protein stability index (ubr1∆): 3.19 ± 0.06

NRIIKADDHASVQINVA [RPS21A]
protein stability index (doa10∆): 2.89 ± 0.055
protein stability index (pdr5∆): 3.05 ± 0.052
protein stability index (san1∆): 2.99 ± 0.052
protein stability index (ubr1∆): 3.11 ± 0.039

NRKIYQFTLYDRELNEV [SMC3]
protein stability index (pdr5∆): 2.62 ± 0.11
protein stability index (san1∆): 2.76 ± 0.13
protein stability index (ubr1∆): 2.98 ± 0.095

NRKRIVTLRKSLYTNTS [RPL3]
protein stability index (doa10∆): 2.66 ± 0.069
protein stability index (pdr5∆): 2.27 ± 0.065
protein stability index (san1∆): 1.66 ± 0.087
protein stability index (ubr1∆): 1.73 ± 0.076

NRLEIKYHNDLIEKEIQ [SMC1]
protein stability index (doa10∆): 2.35 ± 0.18
protein stability index (pdr5∆): 2.51 ± 0.083
protein stability index (ubr1∆): 2.42 ± 0.13

NRLEKEQSVKTQNSRHY [LIN1]
protein stability index (doa10∆): 2.44 ± 0.13
protein stability index (pdr5∆): 2.85 ± 0.12
protein stability index (san1∆): 2.52 ± 0.13
protein stability index (ubr1∆): 2.49 ± 0.096

NRLSNPQKNLLLKGPAS [YOR098C/NUP1]
protein stability index (doa10∆): 2.96 ± 0.049
protein stability index (pdr5∆): 3.05 ± 0.038
protein stability index (san1∆): 2.68 ± 0.054
protein stability index (ubr1∆): 2.94 ± 0.056

NRPDNKNAQYHLLVKQG [RPN7]
protein stability index (doa10∆): 2.86 ± 0.056
protein stability index (pdr5∆): 2.58 ± 0.053
protein stability index (san1∆): 2.79 ± 0.05
protein stability index (ubr1∆): 2.78 ± 0.036

NRQICLVQKTVQESGNI [GRR1]
protein stability index (doa10∆): 3.44 ± 0.16
protein stability index (pdr5∆): 3.21 ± 0.077
protein stability index (san1∆): 2.81 ± 0.064
protein stability index (ubr1∆): 2.69 ± 0.1

NRSAKNSKNDSANVELF [YCS4]
protein stability index (doa10∆): 3.09 ± 0.093
protein stability index (pdr5∆): 3.29 ± 0.11
protein stability index (san1∆): 2.94 ± 0.12
protein stability index (ubr1∆): 3.39 ± 0.072

NRVPDGFQDRSLPHFPK [RPO31]
protein stability index (doa10∆): 3.29 ± 0.16
protein stability index (pdr5∆): 2.86 ± 0.15
protein stability index (san1∆): 3.02 ± 0.11
protein stability index (ubr1∆): 3.6 ± 0.2

NRYAFSQPTNSTTTSLH [SMC4]
protein stability index (doa10∆): 2.44 ± 0.079
protein stability index (pdr5∆): 2.33 ± 0.052
protein stability index (san1∆): 2.14 ± 0.11
protein stability index (ubr1∆): 2.26 ± 0.044

NSGNSNSNSNQQSTDAD [RPT1]
protein stability index (doa10∆): 2.59 ± 0.081
protein stability index (pdr5∆): 2.48 ± 0.081
protein stability index (san1∆): 2.48 ± 0.09
protein stability index (ubr1∆): 2.64 ± 0.052
